From paper PMC4660058

Legend:
[1] = biological target: CP-capped actin filament barbed end (BC) (rabbit | not stated) (UniProt P68135); experiment: microfluidics-assisted single-filament fluorescence microscopy (kinetics of elongation changes); set-up #1: CP-capped barbed ends (BC) exposed to formin without PA for T_(expo) (BC+F→BCF), then PA alone (constants 'from BCF'); k′+F from a fit, not measured directly; F-buffer pH 7.8, 50 mM KCl, room temperature
[2] = biological target: CP-capped actin filament barbed end (BC) (rabbit | not stated) (UniProt P68135); experiment: microfluidics-assisted single-filament fluorescence microscopy (kinetics of elongation changes); set-up #1: formin-bound barbed ends (BF) exposed to CP + PA (BF+C→BFC), then PA alone (constants 'from BFC'); unlabelled formin; F-buffer pH 7.8, 50 mM KCl, room temperature
[3] = biological target: actin filament free barbed end (B) (rabbit) (UniProt P68135); experiment: microfluidics-assisted single-filament fluorescence microscopy (kinetics of elongation changes); set-up #1: filaments from surface-anchored spectrin–actin seeds, free barbed ends exposed to flows of CP or formin with profilin-actin (1 μM actin, 4 μM profilin); off-rates in PA alone; F-buffer pH 7.8, 50 mM KCl, room temperature; KD from the rate constants
[4] = biological target: CP-capped actin filament barbed end (BC) (rabbit | not stated) (UniProt P68135); experiment: microfluidics-assisted single-filament fluorescence microscopy (kinetics of elongation changes); set-up #2: biotin-SNAP-mDia1 anchored on neutravidin coverslip, insertional barbed-end assembly; exposed to CP + unlabelled PA, then PA alone; detachment = BFC→BC+F, resumed growth = BFC→BF+C; F-buffer pH 7.8, 50 mM KCl, room temperature

koff [1] [s⁻¹]	kon [1] [M⁻¹ s⁻¹]	Kd [2] [nM]	koff [2] [s⁻¹]	kon [3] [M⁻¹ s⁻¹]	Kd [4] [nM]	Substance
0.0062	1.6e+06	3 to 4	0.0042	–	–	FH1–FH2–DAD domain of human formin mDia1 (unlabelled) (from UniProt O60610 583-1272) (domain or fragment)
0.0094	115000	–	–	1.54e+06	–	GST–FH1(8P)–FH2–C of formin FMNL2 (from UniProt Q96PY5-3 1-1092) (domain or fragment)
–	–	–	–	–	4	biotinylated SNAP-mDia1(FH1–FH2–DAD)-His (from UniProt O60610 1-1272) (domain or fragment)
